# Measured values as given in the RNAGym collection of RNA variant scans (doi:10.1093/molbev/msab373).
# B1: Azoarcus group I ribozyme (parent)
# chain: GUGCCUUGCGCCGGGAAACCACGCAAGGGAUGGUGUCAAAUUCGGCGAAACCUAAGCGCCCGCCCGGGCGUAUGGCAACGCCGAGCCAAGCUUCGGCGCCUGCGCCGAUGAAGGUGUAGAGACUAGACGGCACCCACCUAAGGCAAACGCUAUGGUGAAGGCAUAGUCCAGGGAGUGGCGAAAGUCACACAAACCGG
# Variants of: B1
# Assay: reverse-splicing fitness (ratio to wild type); higher = more active; in vitro selection; Mg2+ level not given
# Procedure, shortened: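 An in vitro group I ribozyme library with randomized positions was T7-transcribed and gel-purified. In triplicate, 10 pmol RNA in EPPS pH 7.5 was reacted with 50 pmoles of a 30-nt RNA substrate for 1 h at 37 °C across several added MgCl2 levels (1–48 mM), then stopped with EDTA. Products were reverse transcribed from a substrate-complementary primer, PCR-amplified and sequenced (HiSeq 4000). Fitness is a variant's read proportion after selection over that before, normalised to wild type.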
row,Variant,reverse-splicing fitness
1,GUGCCUUGCGCCGGGAAACCACGCAAGGGAUGGUGUCAAAUUCGGCGAAACCUAAGCGCCCGCCCGGGCGUAUGGCAACGCGGAGCCAAGCUUCGGCGCCUGCGCCGAUGGAGGUGUAGCGACUAGACGGCACCCACCUAAGGCUAACGGUAUGGUGAAGGCAUAGUCCAGGGAGGGGCGAAAGUCACACAAACCGG,0.00435
2,GUGCCUUGCGCCGGGAAACCACGCAAGGGAUGGUGUCAAAUUCGGCGAAACCUAAGCGCCCGCCCGGGCGUAUGGCAACGCGGAGCCAAGCUUCGGCGCCUGCGCCGAUGGAGGUGUAGCGACUAGACGGCACCCACCUAAGGCUAACGGUAUGGUGAAGGCAUAGUCCAGGGAGAGGCGAAAGUCACACAAACCGG,0.00634
3,GUGCCUUGCGCCGGGAAACCACGCAAGGGAUGGUGUCAAAUUCGGCGAAACCUAAGCGCCCGCCCGGGCGUAUGGCAACGCGGAGCCAAGCUUCGGCGCCUGCGCCGAUGGAGGUGUAGCGACUAGACGGCACCCACCUAAGGCUAACGGUAUGGUGAAGGCAUAGUCCAGGGAGCGGCGAAAGUCACACAAACCGG,0.0121
4,GUGCCUUGCGCCGGGAAACCACGCAAGGGAUGGUGUCAAAUUCGGCGAAACCUAAGCGCCCGCCCGGGCGUAUGGCAACGCGGAGCCAAGCUUCGGCGCCUGCGCCGAUGGAGGUGUAGCGACUAGACGGCACCCACCUAAGGCUAACGAUAUGGUGAAGGCAUAGUCCAGGGAGCGGCGAAAGUCACACAAACCGG,0.0167
5,GUGCCUUGCGCCGGGAAACCACGCAAGGGAUGGUGUCAAAUUCGGCGAAACCUAAGCGCCCGCCCGGGCGUAUGGCAACGCGGAGCCAAGCUUCGGCGCCUGCGCCGAUGGAGGUGUAGCGACUAGACGGCACCCACCUAAGGCUAACGAUAUGGUGAAGGCAUAGUCCAGGGAGGGGCGAAAGUCACACAAACCGG,0.00773
6,GUGCCUUGCGCCGGGAAACCACGCAAGGGAUGGUGUCAAAUUCGGCGAAACCUAAGCGCCCGCCCGGGCGUAUGGCAACGCGGAGCCAAGCUUCGGCGCCUGCGCCGAUGGAGGUGUAGCGACUAGACGGCACCCACCUAAGGCUAACGAUAUGGUGAAGGCAUAGUCCAGGGAGAGGCGAAAGUCACACAAACCGG,0.0132
7,GUGCCUUGCGCCGGGAAACCACGCAAGGGAUGGUGUCAAAUUCGGCGAAACCUAAGCGCCCGCCCGGGCGUAUGGCAACGCGGAGCCAAGCUUCGGCGCCUGCGCCGAUGGAGGUGUAGCGACUAGACGGCACCCACCUAAGGCUAACGUUAUGGUGAAGGCAUAGUCAAGGGAGAGGCGAAAGUCACACAAACCGG,0.0171
8,GUGCCUUGCGCCGGGAAACCACGCAAGGGAUGGUGUCAAAUUCGGCGAAACCUAAGCGCCCGCCCGGGCGUAUGGCAACGCGGAGCCAAGCUUCGGCGCCUGCGCCGAUGGAGGUGUAGCGACUAGACGGCACCCACCUAAGGCUAACGUUAUGGUGAAGGCAUAGUCAAGGGAGGGGCGAAAGUCACACAAACCGG,0.00592
9,GUGCCUUGCGCCGGGAAACCACGCAAGGGAUGGUGUCAAAUUCGGCGAAACCUAAGCGCCCGCCCGGGCGUAUGGCAACGCGGAGCCAAGCUUCGGCGCCUGCGCCGAUGGAGGUGUAGCGACUAGACGGCACCCACCUAAGGCUAACGUUAUGGUGAAGGCAUAGUCAAGGGAGCGGCGAAAGUCACACAAACCGG,0.0137
10,GUGCCUUGCGCCGGGAAACCACGCAAGGGAUGGUGUCAAAUUCGGCGAAACCUAAGCGCCCGCCCGGGCGUAUGGCAACGCGGAGCCAAGCUUCGGCGCCUGCGCCGAUGGAGGUGUAGCGACUAGACGGCACCCACCUAAGGCUAACGGUAUGGUGAAGGCAUAGUCAAGGGAGAGGCGAAAGUCACACAAACCGG,0.0119
11,GUGCCUUGCGCCGGGAAACCACGCAAGGGAUGGUGUCAAAUUCGGCGAAACCUAAGCGCCCGCCCGGGCGUAUGGCAACGCGGAGCCAAGCUUCGGCGCCUGCGCCGAUGGAGGUGUAGCGACUAGACGGCACCCACCUAAGGCUAACGGUAUGGUGAAGGCAUAGUCAAGGGAGCGGCGAAAGUCACACAAACCGG,0.0134
12,GUGCCUUGCGCCGGGAAACCACGCAAGGGAUGGUGUCAAAUUCGGCGAAACCUAAGCGCCCGCCCGGGCGUAUGGCAACGCGGAGCCAAGCUUCGGCGCCUGCGCCGAUGGAGGUGUAGCGACUAGACGGCACCCACCUAAGGCUAACGGUAUGGUGAAGGCAUAGUCAAGGGAGGGGCGAAAGUCACACAAACCGG,0.00589
13,GUGCCUUGCGCCGGGAAACCACGCAAGGGAUGGUGUCAAAUUCGGCGAAACCUAAGCGCCCGCCCGGGCGUAUGGCAACGCGGAGCCAAGCUUCGGCGCCUGCGCCGAUGGAGGUGUAGCGACUAGACGGCACCCACCUAAGGCUAACGGUAUGGUGAAGGCAUAGUCUAGGGAGGGGCGAAAGUCACACAAACCGG,0.00604
14,GUGCCUUGCGCCGGGAAACCACGCAAGGGAUGGUGUCAAAUUCGGCGAAACCUAAGCGCCCGCCCGGGCGUAUGGCAACGCGGAGCCAAGCUUCGGCGCCUGCGCCGAUGGAGGUGUAGCGACUAGACGGCACCCACCUAAGGCUAACGGUAUGGUGAAGGCAUAGUCUAGGGAGCGGCGAAAGUCACACAAACCGG,0.0131
15,GUGCCUUGCGCCGGGAAACCACGCAAGGGAUGGUGUCAAAUUCGGCGAAACCUAAGCGCCCGCCCGGGCGUAUGGCAACGCGGAGCCAAGCUUCGGCGCCUGCGCCGAUGGAGGUGUAGCGACUAGACGGCACCCACCUAAGGCUAACGGUAUGGUGAAGGCAUAGUCUAGGGAGAGGCGAAAGUCACACAAACCGG,0.0078
